Legend:
[1] = molecular target: T1, CRD domain of human Galectin-3 (human, UniProt P17931 106-250); test: competitive ELISA, inhibition of ASF binding to immobilized Hu-Gal3-CRD
T1 construct: Histidine-tagged; also called hu-Gal3-CRD; Hu-Gal3-CRD
Description: The inhibitory properties and IC50 of the anti-Gal3 antibodies were determined in an ELISA competitive assay by measuring the binding of ASF to immobilized CRD domain of human Gal3 in absence or presence of the antibodies at different concentrations.
The inhibition assay was performed on Hu-Gal3-CRD which was immobilized at 1 μg/mL through its His-tag on functionalized microplates. A 2-fold or 3-fold serial dilution was carried-out with the purified IgGs and added to the wells with immobilized Hu-Gal3-CRD. ASF (A1908-Sigma reference) was added at 8 μg/mL in each well with or without IgGs. ASF binding to Hu-Gal3-CRD was detected with the HRP-labeled anti-ASF sheep antibody. IC50 were estimated according to the model equation Y=Bottom+(Top−Bottom)/(1+(X/IC50)). Indicative maximal percentages of inhibition were obtained with the formula: 100%−(((mean of bottom plateau values of IgGs)×100%)/mean of irrelevant IgG values)

[2] = molecular target: T2, Gal3 CRD domain from cynomolgus (cynomolgus, UniProt A0A7N9CYL1 103-247); test: SPR single-cycle kinetics, captured antibody, Gal3-CRD 0.5-50 nM
T2 construct: domain: CRD domain; also called cynomolgus Gal3-CRD
Description: (§1) The CM5 sensor surface was first immobilized with an anti-human Fc mAb using a standard protocol. The entire sensor surface was first activated by injecting a 1:1 (v/v) mixture of 400 mM EDC and 100 mM NHS at a flow rate of 10 μL/minute for 7 minutes. Monoclonal anti-human Fc antibody (Millipore AP113), 25 μg/mL in Na acetate pH5, 360 s were flowed at 10 μL/minute to reach 10000 RU on both flow cells followed by the injection of 1 M ethanolamine, pH8.5 for 7 minutes at a flow rate of 10 μL/minute. During the entire immobilization procedure, HBS-P was used as the running buffer.
(§2) Antibody samples were prepared at 5 μg/ml and were injected for 30 seconds at 10 μL/minute. In general, 400 to 680 resonance units of antibodies were captured on the chip.
(§3) Kd values were also determined by SPR using […] kinetics analysis. A total of 5 concentrations of Gal3 CRD domain from human, dog, rat and cynomolgus (Novalix) [0.5-50] nM were injected over the antibody capture surfaces for 210 seconds followed by a dissociation phase of 600 seconds at 30 μL/minute. At the end of each cycle, capture surfaces were regenerated by 2 injections of glycine pH 1.5, for 30 seconds at 10 μL/minute, followed by an extra wash with glycine pH 1.5. Fresh antibody was captured at the beginning of each cycle.

[3] = molecular target: T3, Gal3 CRD domain from rat (rat, UniProt P08699 118-262, limits assumed); test: as above
T3 construct: domain: CRD domain; also called rat Gal3-CRD
T3 sequence (looked up): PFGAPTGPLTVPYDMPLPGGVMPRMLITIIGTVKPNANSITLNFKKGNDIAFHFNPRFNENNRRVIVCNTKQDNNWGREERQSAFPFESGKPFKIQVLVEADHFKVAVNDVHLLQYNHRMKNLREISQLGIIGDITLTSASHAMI
Description: as §1, §2, §3

[4] = molecular target: T1, CRD domain of human Galectin-3; test: as above
Description: as §1, §2, §3

[5] = molecular target: T4, Gal3 CRD domain from dog (dog, UniProt P38486 152-296, limits assumed); test: as above
T4 construct: domain: CRD domain; also called dog Gal3-CRD
T4 sequence (looked up): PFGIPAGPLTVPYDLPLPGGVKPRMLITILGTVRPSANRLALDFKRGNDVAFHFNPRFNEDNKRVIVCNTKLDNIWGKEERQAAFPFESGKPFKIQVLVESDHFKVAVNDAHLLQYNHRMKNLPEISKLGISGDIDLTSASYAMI
Description: as §1, §2, §3

[6] = molecular target: T5, full length mouse Galectin-3 (mouse, UniProt P16110 2-264); test: dose-response ELISA on immobilized m-Gal3-FL, IgG
T5 construct: Printed as 'full length'; recombinant, immobilized through a histidine tag; also called m-Gal3-FL; murine Gal3
T5 sequence (P16110 2-264 limits assumed): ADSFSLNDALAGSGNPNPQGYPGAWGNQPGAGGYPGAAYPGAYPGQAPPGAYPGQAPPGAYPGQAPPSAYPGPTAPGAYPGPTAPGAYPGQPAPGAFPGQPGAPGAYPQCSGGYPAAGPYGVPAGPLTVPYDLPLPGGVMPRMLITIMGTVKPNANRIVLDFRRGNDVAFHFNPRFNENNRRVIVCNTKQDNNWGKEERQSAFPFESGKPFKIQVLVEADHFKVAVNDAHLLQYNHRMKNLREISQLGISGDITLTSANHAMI
Description: (§4) To determine the half maximal effective concentration (EC50) of the antibodies, ELISA dose-response experiments were performed on Hu-Gal3-FL and on m-Gal3-FL.
(§5) Hu-Gal3-FL and m-Gal3-FL were immobilized at 3 μg/mL through their His-tag on functionalized microplates as before. A 3.3-fold serial dilution was carried-out with the purified IgGs, added to the wells containing immobilized Hu-Gal3-FL or m-Gal3-FL and detected with an anti-Fab.HRP antibody.

[7] = molecular target: T6, human full-length Galectin-1 (human, UniProt P09382 2-135); test: ELISA on immobilised antigen (3 µg/mL), purified IgG at 15-20 µg/mL, anti-Fab.HRP, OD 450 nm
T6 construct: full-length; Histidine-tagged; also called Hu-Gall; Gall
T6 sequence (P09382 2-135 limits assumed): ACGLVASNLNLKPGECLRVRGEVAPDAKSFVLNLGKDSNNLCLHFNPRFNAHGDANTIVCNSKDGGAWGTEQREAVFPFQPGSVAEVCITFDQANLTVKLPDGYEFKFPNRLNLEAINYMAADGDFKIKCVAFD
Description: (§6) IgG specificity to Gal3 was tested by checking the absence of binding on human Gall and Gal7 by ELISA.
(§7) Hu-Gall and Hu-Gal7 were immobilized at 3 μg/mL. Purified IgGs were added into the wells (15-20 μg/mL final concentration) and detected with an anti-Fab.HRP antibody. Rabbit antibodies directed against Gall (Abcam ab25138 reference) and Gal7 (Abcam ab108623 reference) were used at 5 μg/mL as antigen-coating positive controls and detected with an anti-rabbit.HRP secondary antibody (7074S-Cell Signaling reference).

[8] = molecular target: T7, human full-length Galectin-7 (human, UniProt P47929 1-136); test: as above
T7 construct: full-length; Histidine-tagged; also called Hu-Gal7; Gal7
T7 sequence (P47929 whole entry): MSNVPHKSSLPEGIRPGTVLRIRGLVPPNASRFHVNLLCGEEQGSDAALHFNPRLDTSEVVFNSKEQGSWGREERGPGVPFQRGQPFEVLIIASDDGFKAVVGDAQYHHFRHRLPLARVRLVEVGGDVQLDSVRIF
Description: as §6, §7

[9] = molecular target: T5, full length mouse Galectin-3; test: SPR Biacore T-200, antibody captured by anti-human Fc, Gal3 in solution
Description: as §1, §2

[10] = molecular target: T8, full length human Galectin-3 (human, UniProt P17931 2-250); test: as above
T8 construct: Printed as 'full length'; recombinant, immobilized through a histidine tag; also called hu-Gal3-FL; Hu-Gal3-FL
T8 sequence (P17931 2-250 limits assumed): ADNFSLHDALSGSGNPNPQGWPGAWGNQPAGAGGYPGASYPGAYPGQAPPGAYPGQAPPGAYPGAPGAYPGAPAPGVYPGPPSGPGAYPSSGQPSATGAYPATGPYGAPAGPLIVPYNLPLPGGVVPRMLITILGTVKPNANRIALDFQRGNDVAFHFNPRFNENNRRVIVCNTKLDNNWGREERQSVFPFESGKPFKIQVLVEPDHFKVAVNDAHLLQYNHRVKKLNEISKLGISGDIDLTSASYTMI
Description: as §1, §2

[11] = molecular target: T8, full length human Galectin-3; test: dose-response ELISA on immobilized Hu-Gal3-FL, IgG
Description: as §4, §5

[12] = molecular target: T5, full length mouse Galectin-3; test: ratio of the ELISA EC50 values on Hu-Gal3-FL and m-Gal3-FL
Description: as §4, §5

T1 sequence (P17931 106-250 limits assumed): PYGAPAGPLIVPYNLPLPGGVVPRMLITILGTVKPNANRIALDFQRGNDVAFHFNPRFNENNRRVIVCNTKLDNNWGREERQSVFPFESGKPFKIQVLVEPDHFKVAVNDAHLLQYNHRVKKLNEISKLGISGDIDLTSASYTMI

B1: anti-Gal3 antibody D06 (antibody, V domains shown)
VH: EVQLVESGGSLVKPGGSLRLSCAASGFTFSNYNMNWVRQAPGKGLEWISSIYGSSRYIYYADFVKGRFTISRDNAKNSLYLQMNSLRAEDTAVYYCVRSGYGGMDVWGRGTLVTVSS
VL: QSVLTQPASVSGSPGQSITISCAGTSSDVGGYNGVSWYQQHPGKAPKLMIYYDSYRPSGVSNRFSGSKSGNTASLTISGLQAEDEADYYCSSGTDYSTRVFGGGTKLEIK
B1 showed an IC50 [1] of 5.1 nM, a Max % inhibition [1] of 82% and a Kd [2] of 10 nM. The Kd [3] was 4.8 nM, the Kd [4] was 15 nM and the Kd [5] was 12 nM. The EC50 [6] was 0.16 nM, the binding result [7] was “no binding (tested: 15-20 µg/mL)” and the binding result [8] was “no binding (tested: 15-20 µg/mL)”. For the same binder, the Kd [9] was 1.34 nM, the Kd [10] was 13 nM and the EC50 [11] was 0.26 nM. For the same binder, the “Ratio (Human/mouse Gal3 EC50 ratio)” value [12] was 2.

B2: anti-Gal3 antibody E01 (antibody, V domains shown)
VH: EVQLVESGGSLVKPGGSLRLSCAASGFTFSNNYMNWVRQAPGKGLEWISNINGASRNIAYADFVKGRFTISRDNAKNSLYLQMNSLRAEDTAVYYCVRSSDYDGGMDVWGRGTLVTVSS
VL: QSVLTQPASVSGSPGQSITISCAGTSSDVGGNSYVSWYQQHPGKAPKLMIYYDSYRPSGVSNRFSGSKSGNTASLTISGLQAEDEADYYCSSSTYGSTRVFGGGTKLEIK
B2 was tested, and the IC50 [1] was 3.2 nM, the Max % inhibition [1] was 63% and the EC50 [6] was 25.9 nM. For the same binder, the binding result [7] was “no binding (tested: 15-20 µg/mL)”, the binding result [8] was “no binding (tested: 15-20 µg/mL)” and the Kd [9] was 7.81 nM. For the same binder, the Kd [10] was 6.26 nM, the EC50 [11] was 14.3 nM and the “Ratio (Human/mouse Gal3 EC50 ratio)” value [12] was 2.

B3: anti-Gal3 antibody G03 (antibody, V domains shown)
VH: EVQLVESGGSLVKPGGSLRLSCAASGFTFSNYAMNWVRQAPGKGLEWISSIYGSSRYIYYADFVKGRFTISRDNAKNSLYLQMNSLRAEDTAVYYCVRSYNGGMDVWGRGTLVTVSS
VL: QSVLTQPASVSGSPGQSITISCAGTSSDVGGYYNVAWYQQHPGKAPKLMIYYDSYRPSGVSNRFSGSKSGNTASLTISGLQAEDEADYYCSSSTGYSTRVFGGGTKLEIK
In the case of B3, the IC50 [1] is reported as 1.8 nM, the Max % inhibition [1] is reported as 83% and the EC50 [6] is reported as 13.6 nM. The binding result [7] was “no binding (tested: 15-20 µg/mL)”, the binding result [8] was “no binding (tested: 15-20 µg/mL)” and the Kd [9] was 4.53 nM. For the same binder, the Kd [10] was 6 nM, the EC50 [11] was 0.52 nM and the “Ratio (Human/mouse Gal3 EC50 ratio)” value [12] was 26.

B4: anti-Gal3 antibody D11 (antibody, V domains shown)
VH: EVQLVESGGSLVKPGGSLRLSCAASGFTFSNYNMNWVRQAPGKGLEWISSIYGSSRYIYYADFVKGRFTISRDNAKNSLYLQMNSLRAEDTAVYYCVRSSYGGMDVWGRGTLVTVSS
VL: QSVLTQPASVSGSPGQSITISCAGTSSDVGGSYNVAWYQQHPGKAPKLMIYYDSYRPSGVSNRFSGSKSGNTASLTISGLQAEDEADYYCSSYTGYSTRVFGGGTKLEIK
With B4 the IC50 [1] was 2.2 nM, the Max % inhibition [1] was 99% and the Kd [2] was 11 nM. The Kd [3] was 8.6 nM, the Kd [4] was 26 nM and the Kd [5] was 26 nM. The EC50 [6] was 0.99 nM, the binding result [7] was “no binding (tested: 15-20 µg/mL)” and the binding result [8] was “no binding (tested: 15-20 µg/mL)”. The Kd [9] was 2.8 nM, the Kd [10] was 15 nM and the EC50 [11] was 0.37 nM. The “Ratio (Human/mouse Gal3 EC50 ratio)” value [12] was 3.

B5: anti-Gal3 antibody E02 (antibody, V domains shown)
VH: EVQLVESGGSLVKPGGSLRLSCAASGFTFSNYAMNWVRQAPGKGLEWISSIYGSSRSISYADFVKGRFTISRDNAKNSLYLQMNSLRAEDTAVYYCVRSSYNYYYGNGMDVWGRGTLVTVSS
VL: QSVLTQPASVSGSPGQSITISCAGTSSDVGGYGGVSWYQQHPGKAPKLMIYYDSYRPSGVSNRFSGSKSGNTASLTISGLQAEDEADYYCSSSTSYSTRVFGGGTKLEIK
In the case of B5, the IC50 [1] is reported as 5.2 nM, the Max % inhibition [1] is reported as 65% and the EC50 [6] is reported as 76 nM. For the same binder, the binding result [7] was “no binding (tested: 15-20 µg/mL)”, the binding result [8] was “no binding (tested: 15-20 µg/mL)” and the Kd [9] was 4.13 nM. For the same binder, the Kd [10] was 7.38 nM, the EC50 [11] was 34 nM and the “Ratio (Human/mouse Gal3 EC50 ratio)” value [12] was 2.

B6: anti-Gal3 antibody E07 (antibody, V domains shown)
VH: EVQLVESGGSLVKPGGSLRLSCAASGFTFSNYNMNWVRQAPGKGLEWISNIYGSSRYIYYADFVKGRFTISRDNAKNSLYLQMNSLRAEDTAVYYCVRSYYGGMDVWGRGTLVTVSS
VL: QSVLTQPASVSGSPGQSITISCAGTSSDVGGYYSVSWYQQHPGKAPKLMIYYDSNRPSGVSNRFSGSKSGNTASLTISGLQAEDEADYYCSSYTGYSTRVFGGGTKLEIK
Work on B6 yielded an IC50 [1] of 1.5 nM, a Max % inhibition [1] of 89% and a Kd [2] of 7.4 nM. It also gave a Kd [3] of 15 nM, a Kd [4] of 14 nM and a Kd [5] of 23 nM. The EC50 [6] was 0.3 nM, the binding result [7] was “no binding (tested: 15-20 µg/mL)” and the binding result [8] was “no binding (tested: 15-20 µg/mL)”. The Kd [9] was 4.14 nM, the Kd [10] was 9 nM and the EC50 [11] was 0.07 nM. The “Ratio (Human/mouse Gal3 EC50 ratio)” value [12] was 4.

B7: anti-Gal3 antibody H07 (antibody, V domains shown)
VH: EVQLVESGGSLVKPGGSLRLSCAASGFTFSNYNMNWVRQAPGKGLEWISNIDGSSRYIYYADFVKGRFTISRDNAKNSLYLQMNSLRAEDTAVYYCVRSYYGGMDVWGRGTLVTVSS
VL: QSVLTQPASVSGSPGQSITISCAGTSSDVGGYYNVAWYQQHPGKAPKLMIYYDSYRPSGVSNRFSGSKSGNTASLTISGLQAEDEADYYCSSSTGYSTRVFGGGTKLEIK
For B7, the IC50 [1] was 6 nM, the Max % inhibition [1] was 74% and the EC50 [6] was 88 nM. For the same binder, the binding result [7] was “no binding (tested: 15-20 µg/mL)”, the binding result [8] was “no binding (tested: 15-20 µg/mL)” and the Kd [9] was 4.86 nM. The Kd [10] was 5.65 nM, the EC50 [11] was 2.4 nM and the “Ratio (Human/mouse Gal3 EC50 ratio)” value [12] was 37.
